Assay results taken from article PMC10501185.

Target: Lymphocytic choriomeningitis virus RING finger Z matrix protein (Lymphocytic choriomeningitis virus (LCMV)) (UniProt P18541)
Assay: cryo-EM structure

Chain of UniProt P18541 (P18541 whole entry): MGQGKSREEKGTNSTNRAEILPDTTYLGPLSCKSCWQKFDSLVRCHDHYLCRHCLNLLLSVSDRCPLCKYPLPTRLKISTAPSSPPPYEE

Substance: Lymphocytic choriomeningitis virus large polymerase (L), P14240 1-2210
- stoichiometry N: 1
